The source of these data is the supplement of paper PMC12042874.

± gives the uncertainty stated by the source.

The nature of this data set: amyloid nucleation score (Sup35N fusion, yeast selection) (log enrichment); library NNK2; higher = more nucleation; inactive = no reads after selection. An outline of the steps:
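Three technical output replicates were used for random libraries. Psi-negative yeast expressing peptides of 20 random codons fused to Sup35N were induced with 100 μM copper sulfate for 24 hours and grown 7 days at 30°C on medium lacking adenine and uracil, and input and output plasmid inserts were Illumina-sequenced, excluding sequences with under 100 input reads. The nucleation score is the DiMSum log enrichment of output over input reads, centred on the mode score of non-aggregating sequences.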
Substance PSPVIWPISSPGFQSLCICS came in with an amyloid nucleation score of -0.38 ± 0.63.
In turn, PSQHSWGWARCLQDCDSMPG registered an amyloid nucleation score of 0.591 ± 0.34.
In turn, PSQVL yielded an amyloid nucleation score of 0.992 ± 0.52.
PSRMCSCCPLRGSCKDMACR came in with an amyloid nucleation score of 0.256 ± 0.18.
In turn, PSSDGIRITSDGILMSVDNG came in with an amyloid nucleation score of 0.918 ± 0.58.
PSSKVL gave an amyloid nucleation score of 0.024 ± 0.55.
The result for PSWGSLCMSQNHMHLEV reads -0.087 ± 0.42; that for PTMHVRVSG, 0.495 ± 0.28; that for PTSFLKSIVGVIWISANLSR, 0.696 ± 0.43.
PVALLAIRMNIDVVN displayed an amyloid nucleation score of -0.353 ± 0.49.
As for PVCGVIALDSVTLCSSGMLL, the figure is 0.334 ± 0.39; as for PVIYSF, 7.115 ± 0.031; as for PVNCGWQGEDRTVEILHAHG, 1.13 ± 0.28.
Substance PWFMFPCRHRYRQYLWCFCA yielded an amyloid nucleation score of 2.52 ± 0.068.
Substance PWNLLGWLRRS came in with an amyloid nucleation score of 0.108 ± 0.23.
PWTRWGVSFAFKAVNKCVHV gave an amyloid nucleation score of -1 ± 0.76.
PWYGSQGNTKSCYSFVMSLP gave an amyloid nucleation score of 0.06 ± 0.34.
Consider PYIEVY, for which the amyloid nucleation score stood at 0.926 ± 0.52.
Turning to PYQAIHYVNRCGFWLTASCA, the amyloid nucleation score was found to be 0.36 ± 0.62.
PYQSTCSDRSFYVCVCELHW returned an amyloid nucleation score of 0.241 ± 0.8.
Turning to PYSFSV, the amyloid nucleation score entry was “inactive”.
As for QCGWDFLFIVMCKFVQRRCS, the figure is 0.35 ± 0.8.
As to QCMVVQYD, the amyloid nucleation score was -0.394 ± 0.65.
QCWGMERSERSIRFVTRFFR: the amyloid nucleation score was determined as 3.5 ± 0.1.
The substance QDFCSEGCLEDVSSLY had an amyloid nucleation score of -1.37 ± 0.49.
Regarding QEALLWTLNTLKKLSGRGST, the amyloid nucleation score was -1.44 ± 0.55.
Substance QEFLWWGREQLGVCCLGVGR displayed an amyloid nucleation score of 2.88 ± 0.14.
For QELIDIGTNSFVDCCS, the amyloid nucleation score entry is “inactive”.
For QERSILGLHWYICRVAKLSF, the amyloid nucleation score turned out to be 0.196 ± 0.64.
The result for QFGYRCTTPC reads 0.522 ± 0.3; that for QFLEFHIP, -0.223 ± 0.49; that for QFLSYCFWIGNPLVNFINAN, 5.874 ± 0.039.
QFRLQWGLLVQCAGDSVLVM registered an amyloid nucleation score of -0.085 ± 0.61.
The substance QFSYLYLVMASRSLTAVIIV returned an amyloid nucleation score of -0.887 ± 0.3.
The substance QFVHRYGDHNAGVLPSYRKS yielded an amyloid nucleation score of 5.22 ± 0.066.
Substance QFWHKSVSTCLWCCSVAGSW displayed an amyloid nucleation score of 8.73 ± 0.071.
In turn, QGCLRQVQMRDRATRIGEVI yielded an amyloid nucleation score of 0.47 ± 0.25.
In turn, QGRGLRYQH came in with an amyloid nucleation score of 0.166 ± 0.76.
On to QHKDLYLW, for which the amyloid nucleation score entry was “inactive”.
On to QHLLLCAAM, for which the amyloid nucleation score came to 0.399 ± 0.74.
The result for QIVAFY reads “inactive”; that for QIYGCNWLCLQVRHPV, 8.061 ± 0.079.
With QIYSMDMQRMNKCCCEDGEV, the amyloid nucleation score entry is “inactive”.
The substance QKFVLSRPDLDRFYCSMDCM yielded an amyloid nucleation score of -0.185 ± 0.63.
For the substance QLMDGSRSLFMALRRRFLLV, the amyloid nucleation score came to 0.691 ± 0.74.
As to QLPNPKNMISIGNYWKQRSF, the amyloid nucleation score is -1.47 ± 1.1.
With QLVLT, the amyloid nucleation score was 1.14 ± 0.21.
Substance QMIWKIVCING showed an amyloid nucleation score of 4.55 ± 0.097.
The result for QNAMGTSVDYNVNFVYVGNL reads 3.38 ± 0.089.
As for QNDLIWSSW, the figure is -1.32 ± 0.49; as for QNGAALRLIGIWGNGGCK, -0.003 ± 1.1; as for QNGTERGFFCSKLNRSVTLL, 0.358 ± 0.65.
On to QNHVRYQGRLPGSCLGCKYR, for which the amyloid nucleation score is -0.488 ± 1.
QNWVCMNRVYDLKDTYEIDL gave an amyloid nucleation score of -0.526 ± 0.35.
QNYRNSGVKLHTRRIISCNV: the amyloid nucleation score is -0.526 ± 0.36.
QPCQSNSINDIHRRAGFGPL: the amyloid nucleation score was -0.437 ± 0.64.
QPGSLMGNRPKESVRASRAR returned an amyloid nucleation score of -0.104 ± 0.45.
For QQKPVLGLCFWERAGHLSNR, the amyloid nucleation score result was “inactive”.
Turning to QRYCRA, the amyloid nucleation score came out at 0.94 ± 0.23.
On to QSESVVRHWGMRWR, for which the amyloid nucleation score was 0.729 ± 0.29.
As for QSETN, the amyloid nucleation score is -0.264 ± 0.29.
QSGLIHY: the amyloid nucleation score is -0.894 ± 0.78.
QSLVIN returned an amyloid nucleation score of 4.58 ± 0.05.
In the case of QSVYLPLRNVIFPVVVSKCE, the amyloid nucleation score result is “inactive”.
The substance QTCCTSNEQEFVALA registered an amyloid nucleation score of 0.414 ± 0.32.
With QTMMTTRKCSPLRLVLSQRL, the amyloid nucleation score is -0.161 ± 1.1.
As to QVCFHDQ, the amyloid nucleation score was -0.589 ± 0.48.
As to QVKLFYRLRPSFLCVFPFNL, the amyloid nucleation score entry was “inactive”.
The result for QVLISFG reads -2.41 ± 1.1; that for QVVDGWWGNYFIV, -1.92 ± 0.78.
QWSAILFSMRWFVKKSEFSC gave an amyloid nucleation score of 3.48 ± 0.052.
As for QWVVLVD, the figure is -0.016 ± 0.65; as for QYCARAR, 1.87 ± 0.4; as for QYDSSFT, -0.165 ± 0.55.
On to QYGVLSSETLGCTVFKWYVS, for which the amyloid nucleation score came to 0.468 ± 0.6.
Consider QYRCGRRLVQRSEVVIVPVC, for which the amyloid nucleation score result is “inactive”.
The result for QYSTSV reads -0.548 ± 0.61; that for QYTRDFVRGTSQF, -0.949 ± 1.1.
With QYVSLYAVKRIVEIVQDKCA, the amyloid nucleation score came out at 0.012 ± 0.39.
RAATYYQFVVLVCKQSDFKR: the amyloid nucleation score was determined as 5.77 ± 0.095.
With RALRVRILYCEARRMCFMAN, the amyloid nucleation score was 0.236 ± 1.1.
In turn, RANGLSFCTSLLLGEYLNNG yielded an amyloid nucleation score of 2.63 ± 0.078.
As for RANGSSYEREVA, the figure is 0.819 ± 0.47; as for RARFWINGFRVL, “inactive”; as for RATPTSLSIAMFCLFGHALL, 5.87 ± 0.079.
Consider RATRLIRGTWYKKLKRVARI, for which the amyloid nucleation score amounted to 1.32 ± 0.18.
RATSVSILVQLGETLFCEYT yielded an amyloid nucleation score of 0.56 ± 0.2.
RAVTRVKHICLSATRSCDVE had an amyloid nucleation score of 0.523 ± 0.21.
The result for RAYPNLENFLLWRMSNSYLC reads -0.542 ± 0.63; that for RCEAAMWMLASYRVCVTLSC, -0.525 ± 1.1.
In turn, RCGKCGLYS returned an amyloid nucleation score of 0.067 ± 0.5.
Take RCIDFDSSCASTNYGSVLWA: the amyloid nucleation score was 1.09 ± 0.38.
As to RCLLTYSVEYWRIFGTSPDS, the amyloid nucleation score was 0.157 ± 0.5.
RCLPSIFDPMRVTRVLPELY gave an amyloid nucleation score of -0.017 ± 1.
In turn, RCTRSR registered an amyloid nucleation score of 3.4 ± 0.12.
Regarding RCYGVRTHGNLKQIMTKMTE, the amyloid nucleation score was found to be 0.602 ± 0.24.
In turn, RDFYRWNMQ registered an amyloid nucleation score of 3.8 ± 0.069.
As for RDIMR, the figure is 0.57 ± 0.5; as for RDLASSSS, -1.1 ± 0.41.
RDMGPLVNAPVA yielded an amyloid nucleation score of 0.282 ± 0.46.
Take RDPVFIT: the amyloid nucleation score was -1.44 ± 0.76.
The result for RDVFDMSSPTIAQCNVVRGM reads -0.448 ± 0.32; that for RDVFTFYNKGEFERCQTLVY, 0.092 ± 1.1.
As for RDVVSLGLQEGNSRMRHTGG, the figure is 0.82 ± 0.23; as for RDWRVFIYFMGNVVLDY, 5.59 ± 0.08.
The substance REFLIYFCFQIMCCRTYGPA returned an amyloid nucleation score of 5.125 ± 0.046.
As for RERMRY, the figure is 1.64 ± 0.18.
Consider RFAFFVYPTYMRMTVTVLSY, for which the amyloid nucleation score entry was “inactive”.
RFGFRSGPTSSRMWYSFLEF displayed an amyloid nucleation score of 3.15 ± 0.11.
RFHFSDWR: the amyloid nucleation score entry was “inactive”.
With RFLEALTVRHCSPL, the amyloid nucleation score was determined as 4.71 ± 0.06.
RFLTCGNFMR returned an amyloid nucleation score of 0.214 ± 0.74.
RFPVGRLFWQEFRYSDQGVA registered an amyloid nucleation score of 1.17 ± 0.23.
RFQWSCEVRESPPLNVDLMG returned an amyloid nucleation score of 1.41 ± 0.44.
In turn, RFRWTSVSRVKGCFNKMYPS yielded an amyloid nucleation score of 0.1 ± 0.3.
On to RFSLYNLIIEVSAVVEFLWT, for which the amyloid nucleation score entry was “inactive”.
Regarding RFVIVIPQFYYVYFLRRSWT, the amyloid nucleation score was -1.24 ± 1.
With RFWLNCCWRTCSTTFLNWMK, the amyloid nucleation score was found to be 0.472 ± 0.6.
The result for RFYRSVNFKLYLVA reads “inactive”; that for RGADIAVRNFFDYQRRRWCN, 0.222 ± 0.44.
In the case of RGCIGK, the amyloid nucleation score was -0.161 ± 0.65.
Take RGFVLETLWSMTIVVQKFNL: the amyloid nucleation score result was “inactive”.
Turning to RGGVVNCRFRAHFMWL, the amyloid nucleation score is 5.779 ± 0.041.
Regarding RGLLLSTMRGHIDSLRLS, the amyloid nucleation score result was “inactive”.
For the substance RGSFYNGRS, the amyloid nucleation score amounted to 0.049 ± 0.76.
RGTAIKILYL returned an amyloid nucleation score of 5.46 ± 0.069.
The result for RGVGYYRGSICTWFNWAAMW reads 1.83 ± 0.16.
In the case of RGVYKHSPHLIT, the amyloid nucleation score is -0.127 ± 1.1.
Turning to RGYACCL, the amyloid nucleation score was -0.574 ± 0.48.
RGYDLVGSIIFSMQKRLRKK gave an amyloid nucleation score of -1.24 ± 1.1.
As for RHADF, the figure is 1.39 ± 0.27; as for RHGMNGRLTFLASTYSASRL, 0.349 ± 0.22.
The substance RHKYMIKVILRHFTFIIIGS came in with an amyloid nucleation score of -0.05 ± 0.62.
In the case of RHRKMS, the amyloid nucleation score was -0.496 ± 0.23.
The result for RIEIRQSLEDRLRAVSMAET reads 1.64 ± 0.3; that for RIFVIGNFVDCWLRLWT, 0.256 ± 0.65; that for RIITGPGWTVAGSPVRGVRG, 1.68 ± 0.19.
As to RIKMGSSGNLCFIWSMHMYD, the amyloid nucleation score came out at 6.496 ± 0.044.
The result for RILLRRAKFGSR reads 0.432 ± 0.21; that for RIMTFFVMPDSRRRVDHNQV, 0.074 ± 1; that for RINGRRWGFTWVASGLEYFG, 1.87 ± 0.11.
On to RINIFLRITFHNLLQLNRSG, for which the amyloid nucleation score amounted to 6.04 ± 0.081.
As for RISKRAHECLIMQG, the amyloid nucleation score was -0.108 ± 1.1.
